Laboratory results: publication PMC10028609
Blank lines part the entries; values can stand above or below the substance they belong to.

Experiments:
[1] = molecular target: OspR, untagged (peptide arginase from Kamptonema sp. PCC 6506) (Kamptonema sp. (formerly Oscillatoria) PCC 6506); assay: SEC; analytical size exclusion chromatography of OspR in solution (Figure S18); conditions in the SI
[2] = molecular target: His6-MBP-OspR fusion (Kamptonema sp. (formerly Oscillatoria) PCC 6506)
[3] = molecular target: His6-MBP-OspR fusion (Kamptonema sp. (formerly Oscillatoria) PCC 6506); remark: listed apart in the source

stoichiometry N [1]: 2
Substance: OspR, untagged (peptide arginase from Kamptonema sp. PCC 6506) (enzyme)

KM of OspR toward cyclized-and-epimerized OspA^MD, Michaelis–Menten kinetics by urea detection assay (50 mM TRIS-HCl pH 8.5, 1 mM MnCl2, 25 °C) [2]: 6.33 μM
Substance: His6-OspA^MD, fully cyclized-and-epimerized OspA precursor protein (natural protein)

KM of OspR toward unmodified OspA, Michaelis–Menten kinetics by urea detection assay (50 mM TRIS-HCl pH 8.5, 1 mM MnCl2, 25 °C) [3]: 9.01 μM
Substance: His6-OspA precursor protein, unmodified (natural protein)
